# Patent US20100047253A1 (Amgen, published 2010)
# Substitutions are numbered along the chain they refer to. Several values for one entry are separate records, joined by “and”; a condition that tells them apart may be missing. Equal values may be shown once.
# T1: Human IL-13-Mouse IL-13 Helix D (human IL-13 with mouse Helix D)
# T1 construct: Expressed and secreted chimeric protein; also called Mo HelixD
# T1 chain: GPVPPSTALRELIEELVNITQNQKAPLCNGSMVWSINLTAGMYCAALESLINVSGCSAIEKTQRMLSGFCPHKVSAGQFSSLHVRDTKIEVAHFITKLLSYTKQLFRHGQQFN
# T2: Human IL-13-Mouse IL-13 Helix B (human IL-13 with mouse Helix B, UniProt P35225 35-146, limits assumed)
# T2 construct: Expressed and secreted chimeric protein; also called Mo HelixB
# T2 chain: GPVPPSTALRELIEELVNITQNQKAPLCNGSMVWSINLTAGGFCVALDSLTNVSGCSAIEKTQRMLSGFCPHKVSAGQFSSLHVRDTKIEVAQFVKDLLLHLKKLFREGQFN
# T3: Human IL-13-Mouse IL-13 Helix C (human IL-13 with mouse Helix C, UniProt P35225 35-146, limits assumed)
# T3 construct: Expressed and secreted chimeric protein; also called Mo HelixC
# T3 chain: T2 chain with G42M, F43Y, V45A, D48E, T51I, E60Y, K61R, M65I, S67H, F69L
# T4: 693 phage
# T4 peptide: YKIGEPHKDTYM
# T5: mouse IL-13 (mouse, UniProt P20109 22-131, limits assumed)
# T5 construct: also called murine IL-13
# T5 sequence (looked up): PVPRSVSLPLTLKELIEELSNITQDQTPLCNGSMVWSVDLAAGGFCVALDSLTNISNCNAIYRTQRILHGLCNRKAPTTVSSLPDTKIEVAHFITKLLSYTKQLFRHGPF
# B1: mAb 731 (antibody, V domains shown)
# VH: EVQLLESGGGLVQPGGSLRLSCAASGFTFSSYAMSWVRQAPGKGLEWVSAFSGSGGSTYYADSVKGRFTISRDNSKNTLYLQMNSLRAEDTAVYYCVQDGLGPYFYNYGMDVWGQGTTVTVSS
# VL: SYELTQPPSVSVSPGQTASITCSGDKLGDKYACWFQQKPGQSPVLVIYHDSKRPSGIPERFSGSNSGDTATLTISGTQAMDEADYYCQAWDSSTYVFGTGTKVTVLG
# notes: also called sc731
# B2: mAb 157 (antibody, V domains shown)
# VH: EVQLVESGGGLVKPGGSLRLSCAASGFTFSSYSMNWVRQAPGKGLEWVSYISTSYNYIYYADSVKGRFTISRDNAKNSLYLQMNSLRAEDTAVYYCARDQVGATLDAFDIWGQGTMVTVSS
# VL: DIQMTQSPSSLSASVGDRVTITCRASQGIGDDLGWYQQKPGKAPKRLIYAASSLQSGVPSRFSGSGSGTEFTLTISSLQPEDFATYYCLQHNSYPFTFGPGTRVDIK
# B3: mAb 356 (antibody, V domains shown)
# VH: EVQLVESGGGLVKPGGSLRLSCAASGFTFSDYNMHWVRQAPGKGLEWVSSISYSSTYIYYADSVRGRFTISRDNAKNSLYLQMNSLRAEDTAVFYCAREDYYYYGLDVWGQGTTVTVSS
# VL: B2 VL with G28D, G30R, D31N, A50D, T85I, F96W, P100Q, R103K, D105E
# B4: mAb 264 (antibody, V domains shown)
# VH: B2 VH with Y55N, N56S
# VL: B2 VL with I21F, G28D, G30T, R103K, K107R
# B5: mAb 243 (antibody, V domains shown)
# VH: B2 VH with Y55N, N56S
# VL: B2 VL with I21F, G28D, G30T, R103K, K107R
# B6: mAb 176 (antibody, V domains shown)
# VH: B2 VH with Y55N, N56S
# VL: B2 VL with I21F, G28D, G30T, S60P, R103K, K107R
# B7: mAb 183 (antibody, V domains shown)
# VH: B2 VH with T53S, A61G
# VL: B2 VL with R103K
# B8: mAb 785 (antibody, V domains shown)
# VH: not shown
# VL: SYVLTQPPSVSVAPGQTARITCGGNNIGNKIVHWYQQKPGQAPVLVVYDDSDRPSGIPERFSGSNSGNTATLTISRVEAGDEADYYCQVWDSSSDHVVFGGGTKLTVLG
# B9: mAb 693 (antibody, V domains shown)
# VH: QVQLQESGPGLVKPSETLSLTCSVSGGSISSYYWSWIRQPAGKGLEWIGRIYMTGRTNYNSSLKSRVTMSIDTSKNQLSLKLSFMTAADTAVYYCARESGSSYSYDYWGQGTLVTVSS
# VL: SYVLTQPPSVSVAPGQTARITCGGNNIGSKGVHWYQQKPGQAPVLVVYDDSDRPSGIPERFSGSNSGNTATLTISRVEAGDEADYYCQVWVSSSDHHVVFGGGTKLTVV
# notes: also called sc693
# B10: mAb 11.18 (antibody, V domains shown)
# VH: QVQLVESGGGVVQPGRSLRLSCVASGFTFSSYDMHWVRQAPGKGLEWVAVIWYDGSNKYYADSVQGRFTISRDNSKNTLYLQMNSLRAEDTAVYYCTSEDSSGWYDGWFDPWGQGTLVTVSS
# VL: DIQMTQSPSSLSASVGDRVTITCRASQGISNYLAWYQQKPGKVPKVLIYAASTLQSGVPSRFSGSGSGTDFTLTISSLQPEDVATYYCQKYNSAPFTFGPGTKVDIK
# B11: mAb 602 (antibody, V domains shown)
# VH: EVQLVESGGGLVKPGGSLRLSCAASGFTFSNAWMSWVRQAPGKGLEWVGRIRSKIDGGTINYAAPVKGRFTISRDDSKNTLYLQMNSLKTEDTAVYYCATDQVGAYYGDYYGMDVWGQGTTVTVSS
# VL: SYELTQPPSVSVSPGQTARITCSGDALPEKYAYWYQQKSGQAPVLVIYEDTKRPSGIPERFSGSSSGTMATLTISGAQVEDEADYYCYSTDSSGNHGVFGGGTKLTVLG
# B12: mAb 643 (antibody, V domains shown)
# VH: B11 VH with K54E, I60T, K89R
# VL: B11 VL with T51S, Y88H
# B13: mAb 713 (antibody, V domains shown)
# VH: B1 VH
# VL: B1 VL with A32T
# Molecular target: T6, human IL-13 (source not stated for the assay) (human, UniProt P35225 35-146, limits assumed)
# Assay: cell-based or functional assay
"EC50, HDLM-2 proliferation assay (3H-thymidine) [nM]","EC50, L-1236 proliferation assay (3H-thymidine) [nM]","IC50, IL-13-induced CD23 expression on whole blood B cells (FACS) [nM]",Binder
0.18,0.0052,0.87,B1

# Molecular target: T6, human IL-13 (source not stated for the …)
# Assay: cell-based or functional assay
# Remark: another data set of the same source
"IC50, IL-13 induced eotaxin release, Average [nM]","IC50, IL-13 induced eotaxin release, n = 1 [nM]","IC50, IL-13 induced eotaxin release, n = 2 [nM]","IC50, IL-13 induced eotaxin release, n = 3 [nM]",Binder
0.258,0.26,0.207,0.306,B2
1,1.09,0.913,–,B3
0.297,0.293,0.313,0.284,B4
0.253,0.253,–,–,B5
0.233,0.233,–,–,B6
1.44,1.04,1.84,–,B7
0.176,0.223,0.144,0.16,B8
0.054,0.038,0.069,0.053,B9
0.245,0.213,0.304,0.217,B10
0.066,0.08,0.053,–,B11
0.035,0.044,0.028,0.033,B12
0.021,0.021,0.021,0.019,B13
0.016,0.011,0.019,0.017,B1

# Molecular target: marmoset IL-13 (marmoset, UniProt A0A8I3WT33 35-145)
# Assay: KinExA, n-curve analysis
# marmoset IL-13, sequence (A0A8I3WT33 entry or part of it): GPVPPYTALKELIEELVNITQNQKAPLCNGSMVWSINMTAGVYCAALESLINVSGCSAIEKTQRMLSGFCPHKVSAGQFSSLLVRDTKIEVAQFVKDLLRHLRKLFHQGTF
row,Kd [nM],Binder
1,< 0.007,B1

# Molecular target: T1, Human IL-13-Mouse IL-13 Helix D
# Assay: ELISA on secreted IL-13 chimeric proteins
row,binding result,Binder
1,no binding,B8
2,no binding,B9

# Molecular target: T2, Human IL-13-Mouse IL-13 Helix B
# Assay: ELISA on secreted IL-13 chimeric proteins
row,binding result,Binder
1,binds,B8
2,binds,B9
3,binds,B11
4,binds,B12

# Molecular target: T3, Human IL-13-Mouse IL-13 Helix C
# Assay: ELISA on secreted IL-13 chimeric proteins
row,binding result,Binder
1,binds,B8
2,binds,B9
3,binds,B11
4,binds,B12
5,no binding,B13
6,no binding,B1

# Molecular target: T2, Human IL-13-Mouse IL-13 Helix B
# Assay: ELISA on secreted IL-13 chimeric proteins; '*' denotes that the binding was weak in the sandwich ELISA
row,binding result,Binder
1,binds,B13
2,binds,B1

# Molecular target: T7, native human IL-13 (human, UniProt P35225 35-146, limits assumed)
# T7 construct: also called hIL-13
# Assay: KinExA kinetic, injection method; koff calculated from kon and KD
row,koff [s⁻¹],Binder
1,4.2e-05,B1

# Molecular target: T8, Human IL-13-rabbit Fc fusion protein (human IL-13 fused to rabbit Fc)
# T8 construct: also called IL-13-RbFc; IL-13 Rb Fc
# Assay: ELISA on plates coated with IL-13RbFc, detection with rabbit anti Hu IgG Fc HRP (paragraph 267 to paragraph 269)
# T8 sequence (chain, as listed by the source limits assumed): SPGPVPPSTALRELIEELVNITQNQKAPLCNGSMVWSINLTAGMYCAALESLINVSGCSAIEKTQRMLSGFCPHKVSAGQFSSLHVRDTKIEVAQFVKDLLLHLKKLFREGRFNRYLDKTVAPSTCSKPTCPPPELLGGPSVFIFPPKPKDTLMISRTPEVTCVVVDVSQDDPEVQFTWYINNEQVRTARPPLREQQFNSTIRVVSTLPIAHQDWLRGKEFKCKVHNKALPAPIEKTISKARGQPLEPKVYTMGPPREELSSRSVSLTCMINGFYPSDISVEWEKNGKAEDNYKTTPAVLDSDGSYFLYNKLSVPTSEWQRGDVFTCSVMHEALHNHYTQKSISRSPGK
row,binding result,Binder
1,binds,B1

# Molecular target: T9, native macaque IL-13 (macaque monkey)
# T9 construct: also called macaque monkey IL-13
# Assay: KinExA, equilibrium in solution
# T9 sequence (Q864V6 19-132): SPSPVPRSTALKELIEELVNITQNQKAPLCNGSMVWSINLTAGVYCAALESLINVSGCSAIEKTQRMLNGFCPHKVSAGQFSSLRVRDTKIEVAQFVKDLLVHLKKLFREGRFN
row,Kd [nM],Binder
1,1.6,B1

# Molecular target: T7, native human IL-13
# Assay: KinExA; KD from the equilibrium experiments, printed in the kinetic table (injection method row)
row,Kd [nM],Binder
1,0.0089,B1

# Molecular target: T7, native human IL-13
# Assay: KinExA, equilibrium in solution
row,Kd [nM],Binder
1,0.013,B12
2,0.0036,B13
3,0.0089,B1

# Molecular target: T10, Recombinant Human IL-13 (R & D 213-IL-005) (human, UniProt P35225 35-146)
# T10 construct: also called IL-13 antigen (R&D Systems)
# Assay: SPR (Biacore 2000), mAb captured on goat anti-human surface, IL-13 (R&D) injected, 1:1 model
Kd,koff,kon,Binder
0.189 nM and 0.109 nM,0.00038 s⁻¹ and 0.00027 s⁻¹,2e+06 M⁻¹ s⁻¹ and 2.5e+06 M⁻¹ s⁻¹,B9
0.172 nM,0.00051 s⁻¹,3e+06 M⁻¹ s⁻¹,B11
0.066 nM,0.00029 s⁻¹,4.4e+06 M⁻¹ s⁻¹,B12
0.012 nM,3.4e-05 s⁻¹,2.9e+06 M⁻¹ s⁻¹,B13
0.009 nM,3.5e-05 s⁻¹,3.9e+06 M⁻¹ s⁻¹,B1

# Molecular target: T6, human IL-13 (source not stated for the …)
# Assay: cell-based or functional assay
# Remark: another data set of the same source
"IC50, eotaxin production by HDFa cells, 300 pM IL-13 [pM]","IC50, eotaxin production by HDFa cells, 600 pM IL-13 [pM]",Binder
28,56,B1

# Molecular target: T4, 693 phage
# Assay: Panning of mAb 693 against a 12-mer random peptide library expressed on phage, two rounds
row,binding result,Binder
1,binds,B9

# Molecular target: T7, native human IL-13
# Assay: KinExA kinetic, injection method
row,kon [M⁻¹ s⁻¹],Binder
1,4.7e+06,B1

# Molecular target: T5, mouse IL-13
# Assay: epitope mapping with mouse IL-13 chimeric molecules (ELISA)
row,binding result,Binder
1,no binding,B8
2,no binding,B9
3,no binding,B11
4,no binding,B12
5,no binding,B13
6,no binding,B1
